Experimental findings from patent US11781164B2, “Demethylation of reticuline and derivatives thereof with fungal cytochrome P450” (priority 2017, dated 2023) are described below.

B1: CYPDN17: cytochrome P450 homolog A0A2G4SQ34 from Rhizopus microsporus, codon-optimized (protein, listed as Rhizopus microsporus)
chain: MDHLIQVYNSSTQVLIPVLQKRSKASYITAAIALIIAQRLYSYFRVPKHLRGFPKLPYFGIAKSLLTRESPRERVKKYVLPIIDENDGFYISKIPFGWMLYIANPVAAKQLLLKSSGFPKNHGLLDNMGENLFVEFIGKDNVALSNGDTWKRQRKVMNPAFHHSLPIKTMSKVVFSLISAIEQANGTIPVASAMQNFTLDTLGLAIFGFDFKALQGDPDEWTKTYRFVSDCIFDPVINVFSSYSFIIDRIYPRRRRGAIATKKLSEKFLKIAQQKRKEIKSGAYADVPDNEKDLLTLMLEAEEKGDTWTSEDELRHNIAILFVAGHDTTAHALSFCFYHLAKNKDVQQKLRKEVLSILGDKPVDVVPTVEQLKNMQYLNMVIKENLRINSPADMLFSRDVKEDTILANTLIPKGTVVTINIEALHYNPRLWHNPDQFDPERFAPGGEHEKHEGMTWLPFSNGTRQCLGMNFSLFEQRLVIAMILKKYEISIPEDSIHRDHIVSDIPFNGAPKSLKLTFTKRH
B2: CYPDN8: cytochrome P450 homolog A0A0C7AZL4 from Rhizopus microsporus, codon-optimized (protein, listed as Rhizopus microsporus)
chain: MDHLIQVYNSSTQVLIPVLQKRSKASYITAAIALIIAQRLYSYFRVPKHLRGFPKLPYFGIAKSFFAKESPRERVKKYILPIINERDGFYISNIPFGWMLYVTNPIAAKQILLKSNGFPKNHGLLEDMGENLFIEFIGKDNVVLTNGDTWKRQRKVMNPAFHHSLPIKTMSNVVFSLISVIDQANGTVPVASTMQNFTLDTLGLAIFGFDFKALQGDGDEWTKTYRLVSDCLFDPIINVFSSYSFIFDRIYPRRRRGAMATRKLGEKFLEIAQQKRMEIKSGAFADVPDNEKDLLTLMLEAEEKGDVWTSEDELRHNIAVLFLAGHDTTAHALSFCFYHLAKNKDIQQKLRKEVLDLLGDEPVDVVPTVEQLKDMQYLNMVIKENLRMNSPADMLFSRDVQEDIVLANTFIPKGTVISINIEALHCNPKLWHNPDQFDPERFAPGGEHEQHEGMTWLPFSNGTRQCLGMNFSLFEQRLVIAMILKKYEISIPEDSIHRNHIINDMPFNVAPKSLELTFTKRY
modifications: codon-optimized
B3: CYPDN14: cytochrome P450 homolog A0A168T1R5 from Absidia glauca, codon-optimized (protein, listed as Absidia glauca)
chain: MPIVNALQTYSYEEPINFLKDVWLNRLFPAGTSNRKKAALLTLGATIALVCRTVYRLYRVPRSLRHIPAVGYVAMLRSILKREDATTRAMTIFQPAMKKGNGVFLVNFPLEWSIYVAEPLAAKAVLMKSDNFPKSIDFIHALGKENPVVKFFGTDNVALVNGEQWKRQRKVMNPAFHRAMPVQMFGRLLQKGFKNIEEQGHQVAALDFFQRLTLDALGHAVFGFDFGALNDREAVWTVTYESIRLNLRNPLAFAFPSMDWLLKYVIPGRLQMAASVDKLNGLMMDMIKEKRIKLLESQAQDDTPENEKDLLTLMLEAEQRGEGTTNDEELRSNMAVFFLAGHETTANTMSFCLYNLAMDKSVQEKARQEVIKVLGDEPEDVLPRNEELRQIPYLDMILKENLRRFGPASMLNARKTVEDFDMNGTFIPKNTSVIVETNALHHNPEVWKNPEQFDPERFAPGGEHETSHEGMAWLPFSSGSRGCLGMNFSMAEQRVFLAMLLRKYEWDLPKDSIHKNGIQIGNFQNACPDSLKIQFTPRY
B4: CYPDN10: cytochrome P450 homolog A0A0B7NB52 from Parasitella parasitica, codon-optimized (protein, listed as Parasitella parasitica)
chain: MAIENFMQSYNRAIENVLPILRKRSKASYIGMAIMCIVIKQVYSAYSVPKHLQRFPKVSFLSMIRSYLIKEAVVERTKRLVTPLTDAGHGFYVCKIPLTWTVFVTDPIAAKTLLLKTEFFPKSHAFFDALGDNSPAVQFLGRENVAASNGEIWKKQRKFMNPAFLRSSPVKTFSSVTHNLIKVIETQSDAVPIANCMKAFTIDALGLSAFGFDFQSLNGDPEGWTETYNIAIAGLFDPFINIFVKVDFMMNYISSKRKRINKAITRFNSMLEDLANKRRQEILNGETLGVPENEKDLLTLMIEADIREGSRTTSTELRHNIALFFLAGHDTTAHTLAFCLYNLAKNKHVQAKARAEVLDILGDEPKDVDPTMEDLKRMDYLNMVIKENLRRCGPVDKLLSRDTAEDIDLNGTLIPKGQKISIDFNSIHMNPKLWHNPEEFVPERFEPGGEFDQHTGFTWLPFSHGSRQCIGMNFSLTEQKVLLSMICKRAIEEI
B5: CYPDN13: cytochrome P450 homolog A0A1X2HZE4 from Absidia repens, codon-optimized (protein, listed as Absidia repens)
chain: MGTSYKRKAAYVTIGAAVVLLFRSIYGFYYVPKSLRHLPCVGYRELAYSIMKREDAATRARSVLGQAIKEKNGAFVAKFPMEWTVFLTSPRTIQAVLLKSDKFPKTYDMFHALGESSPFVKFLGIKNVGFSNGDDWKRQRKVMNPAFQRSVPVEMFGKLMQKGILAIEKQGYEVRALDFFERITLDSIGIFLFSFDFGSLDNPNSVWSLTYDTIRRGIKNPALTVFPQLDCLLKYVTPGRRHLDQCVTKLNNLLMEVAKEKRRQVQSPSDKLIPDSEKDLLTLILEAELRGDGSASDEELRGNLALFFLAGHETTASAMCFCLYNLAMNKDIQEKARKEVLEVLGDEPVDVRPDIQDLKQFRYMDMILHENLRRFGPAAMLLPRKSEEDFVADGILIPKNTPVVIDLNTMHHNPQVWKDPEIFDPERFAPGGEYEANGEKMAWLPFSSGSRVCIGKSFSMAEQRVFLSMLLKKYEWDFPDDSIHRDGIKMENFENNAPESLSFRFHPRY
B6: CYPDN11: cytochrome P450 homolog A0A068SB73 from Lichtheimia corymbifera, codon-optimized (protein, listed as Lichtheimia corymbifera)
chain: MAVASPQIKNMVTMDRLQDIYSTVSQHVVAHASAVTSRQRKISISAAVALVAFYTVYKVVTPPANLRHIPSMGFFSYLNAFLRGKQLHDISKNVVLPHAVNVDNGVYLRFDILGWTVHIARPEAAKRFLLKSDIFPKADMISERGNTLFGKFVFNRNIVMLNGDDWKAQRKVANPAFHRAMPVELFGRLTQKTLKKMEEEMDGGTLNFHDITERYTLEVIGLAGFEFEFGAIENPKSEWVDRYQRLIEATFNPWFIAFPNLDMRYRFLFPSRKRLHREMDAFLDKMSQVITHKRELLNHQKTTVPESERDILTLMIEAEKNGEGSMTNEELQNNLLVFFIAGHDTTSLALSYAAYYLAVNPDVQRKAREEAIRVLGDAPEDVMPTVEQTRQLTYINMVIKETLRMSPPLATIPVREASEDTELCGTFIPKGTRTFLDIYEIQHNPTVWKDPETFKPERFKPGGEAEELAGSGMSWLPFSNGSRQCIGLNFSLVEQRVFLPMLLRKYEWHLPEDSIHKERIQTMGLAVIKPKDLKLTFKKRY
B7: CYPDN9: cytochrome P450 homolog A0A1X2HQ99 from Syncephalastrum racemosum, codon-optimized (protein, listed as Syncephalastrum racemosum)
chain: MFRPPAGLPKLPIINYFRLLWALYRKESPTRRSQRLILPALQKHNAKAYLAKVPYTWTVYLVDPVAVKTFLMRNGTFPKTMESIDAFDQSHPNVQFWGRENLGFSVGDSWKRQRKIIFPAFRRAMPVQLFGELVPKMFDLIDKEHSTIAIDLMQRFTLDALGLAAFSFDFHALDNHNNEWEVAYEMIRKELVSPLTNMLARYDYILKYIIPGRAEKQAAVSKINHLLSDIANERRKMIKRNPDMLKVPDSEKDLLTLMLESDLENSDDPASEELIRANLATFFLAGHDTTANTLSFWLYHLAMYKDIQKKAREEVIETMGGAPEDIVPTAEQLKKMKYMDCIIKENLRFMGPALELFPRIAKEDYNLNGIFIPKGTRVSVDLHTLHHHPDVWKEPERFDPLRFVENGEHSKHEGLSWIAFSSGARVCIGQNFSLVEQRVVMSMLLRRYEWDIPEDSIHREGLQLKDTNNQAPRSLEIVFKKRY
modifications: codon-optimized
B8: CYPDN16: cytochrome P450 homolog A0A1X2HFU1 from Syncephalastrum racemosum, codon-optimized (protein, listed as Syncephalastrum racemosum)
chain: MTQLTTPDTLGKLLAIYRQTPASRRASWIGWAVAATVIASQLYKTLVPPSNLPNLPTINYFRLLSSFLRRDSPTIRSQEILIPALEKHEQKKAYLAKLPLTWTVFLVDPIAAKIFLMKMDIFPKIKETIDALDSQHPIVEFFGRENVAISVGEAWRNQRKVMNPAFRRAMPISIFGNLMFKVFKNIEENKPVIAIDLMQAFTLDALGRAAFSFDFHALDDQHSIWVETYEIIRQSLRNPANAVLARYNFITKYLMPGRAKQKAATHKLNSLLLEMASRKRAELEKHPELRELPDSEKDLLTLMVEADMESGDDPTSAELLRANLSVFFLAGHDTTANTLSFWLYHMAVNKDVQAKAREEVIKILGDGPEDVMPTADQCKQMTYLDCIIKENLRLLGPASQLIPRMATEDVDLNGIFIPKGTRVTVDMHTMHYSPMLWKDPGVFKPDRFLDEGEHSQHRGLAWLPFSSGGRQCLGMNFSLTEQRVVMSMMLRKYTWELPADSIHRDGVKLNEVNTVAPRTLSIIFQQRYH
B9: CYPDN12: cytochrome P450 homolog A0A1C7N669 from Choanephora cucurbitarum, codon-optimized (protein, listed as Choanephora cucurbitarum)
chain: MFTETALQIYHQMAEKVLPILKRQPKSSYIGAALVFLLVAEIRRQLSVPKHLKKFPTIGVFTLMKSFMRNDSVIERHNRLVAPIVKQGHKFYAAKIPFDWSLSIVDPEIAKIMLMKSDAFPKSQGFTRKLGDSSLIVRFTGRDNVSISNGHVWKRQRKFMNPAFRRSTPIKTFGELTLKFFDCVDEQPQDFPAAIKLKNYTLDALGIAAFDFDFKSLSGDPEGWTEIYNVIMKGMFDPWVFLFGKMEFILQYIIPSKRECIKSVVKFNKMLVEMADKRRQEIQNGKKLNTPNSEKDLLTLMIEAEMEEGIMTTNEELRENIALFFLAGQDSTGNSLSFCLYHLAKNKHVQDKLRREIMSVMGDRDLDAIPTVEDFKDMPYLNMVIKENLRLSGPADRFLDRVVAEDIVLGGELIPKGTLITVDVASIHYNPEYWHDPEVFIPERFEPNGEFDQHAGVAWLPFSNGARQCIGMNFSLAEQRVFLTMLLRRYEVGISKDSIHYDSIVYEQSFTFAPSSLTLNFTKLN

In one data set the test system is thebaine. Kind of data set: Demethylation of thebaine by new cytochrome P450 fungal and plant homologs co-expressed with CPRs in S. cerevisiae. The note with it: 0.5 mM thebaine, SC or DELFT media pH 7, 72 h.
Regarding B1, the “O-demethylation activity compared to the positive control Ps_CODM_co” value is reported as “substantially higher”; the “O-demethylation activity, converting thebaine to oripavine” value is on record as “display 0-demethylation activity”; the “nororipavine production in the presence of thebaine” value is “detected”.

In the case of B2, the “O-demethylation activity compared to the positive control Ps_CODM_co” value was “substantially higher”; the “O-demethylation activity, converting thebaine to oripavine” value is given as “display 0-demethylation activity”; the “nororipavine production in the presence of thebaine” value is “detected”.

The data set is the same for the next values; noted with them: 0.5 mM thebaine, SC or DELFT media pH 7, 72 h, 30° C.; co-expressed with Cel_CPR_co, Tp_CPR_5866, Tp_CPR_DN10898 or POR1.
Turning to B3, the Northebaine production entry was “+”.

In the case of B4, the Northebaine production result is on record as “+”.

B5: the Northebaine production entry is reported as “+”.

For the molecule B6, the Northebaine production result is on record as “+”.

B1: the Northebaine production entry was “+”.

As to B7, the Northebaine production entry is on record as “−”.

In the case of B8, the Northebaine production result is “+”.

Regarding B2, the Northebaine production entry is “+”.

Turning to B9, the Northebaine production result was “+”.
